Patent publication US20230399406A1

Biological target: human PD-L1 (programmed death-ligand 1) (human) (UniProt Q9NZQ7)
Assay: cell-based or functional assay

Chain of UniProt Q9NZQ7 (Q9NZQ7 19-290): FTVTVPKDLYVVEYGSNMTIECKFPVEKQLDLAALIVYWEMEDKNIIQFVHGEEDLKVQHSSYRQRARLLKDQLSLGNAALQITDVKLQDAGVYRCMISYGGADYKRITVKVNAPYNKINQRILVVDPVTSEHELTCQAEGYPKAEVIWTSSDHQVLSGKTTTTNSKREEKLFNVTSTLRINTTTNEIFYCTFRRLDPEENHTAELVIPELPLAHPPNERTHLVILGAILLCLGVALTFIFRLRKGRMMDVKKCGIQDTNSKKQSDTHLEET

Untargeted (BcII10 VHH) chimera gave an STAT1 phosphorylation (phospho STAT1 MFI, FACS) in MDA-MB-321 cells of 100 ng/mL.
